Assay [1] deals with T1, His-tagged human recombinant FcγRIIIa 176-Phe (Sino Biological, cat. no. 10389-H27H) (human, UniProt P08637 17-208).
T1 construct: also called FcγRIIIa[F]
Put plainly: SPR, His-tagged FcγR captured on anti-His chip, antibody injected. As for the experimental part:
(§1) Biacore Series S Sensor Chips CM5 (Cytiva, cat. no. 29104988) were covalently coated with anti-His antibody using amine-coupling and His capture kits (Cytiva, cat. no. BR100050 and cat. no. 29234602) according to the manufacturer's instructions. […] After three start-up cycles of HBS-EP+ buffer, antibody samples were injected for 12 cycles per sample to generate binding curves using antibody concentration ranges of 0 to 3,000 nM for FcγRIa and 0 to 10,000 nM for the other FcγRs.
(§2) Dissociation from the anti-His-coated surface was performed by regeneration of the surface using 10 mM Glycine-HCl pH 1.5 (Cytiva, cat. no. BR100354).
In general terms: In SPR one partner is held on a chip, and binding of the other changes the refractive index at the surface.

Assay [2] concerns the target His-tagged human recombinant FcγRIa (Sino Biological, cat. no. 10256-H08S-B) (human, UniProt P12314 16-288). Described as above. As for the experimental part: as §1, §2
Assay [3] addresses T2, His-tagged human recombinant FcγRIIb (Sino Biological, cat. no. 10259-H27H-B) (human, UniProt P31994 43-217).
T2 construct: also called FcγRII2b [sic]
T2 sequence (looked up): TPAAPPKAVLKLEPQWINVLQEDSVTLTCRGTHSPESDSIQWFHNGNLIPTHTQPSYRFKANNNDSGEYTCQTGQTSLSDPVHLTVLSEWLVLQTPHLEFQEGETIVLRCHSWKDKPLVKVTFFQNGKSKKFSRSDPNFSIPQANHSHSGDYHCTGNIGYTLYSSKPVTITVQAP
The description is as above. As for the experimental part: as §1, §2

Assay [4] concerns the target T3, His-tagged human recombinant FcγRIIa 167-His (Sino Biological, cat. no. 10374-H08H1) (human, UniProt P12318 34-218).
T3 construct: also called FcγRIIa[H]
T3 sequence (looked up): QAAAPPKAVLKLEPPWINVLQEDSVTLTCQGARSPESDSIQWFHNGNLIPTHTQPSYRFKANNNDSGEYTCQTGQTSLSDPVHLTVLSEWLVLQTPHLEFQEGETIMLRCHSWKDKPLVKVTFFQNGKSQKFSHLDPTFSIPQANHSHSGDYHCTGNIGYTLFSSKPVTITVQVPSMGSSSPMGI
The description is as above. As for the experimental part: as §1, §2

Assay [5] addresses T4, His-tagged human recombinant FcγRIIIa 176-Val (Sino Biological, cat. no. 10389-H27H1-B) (human, UniProt P08637 17-208).
T4 construct: also called FcγRIIIa[V]
The assay is described as above. On the procedure:
as §1, §2

For assay [6], the target named is T5, human OX40 expressed on cells (human, UniProt P43489 29-277).
T5 construct: also called CD134; TNFRSF4
T5 sequence: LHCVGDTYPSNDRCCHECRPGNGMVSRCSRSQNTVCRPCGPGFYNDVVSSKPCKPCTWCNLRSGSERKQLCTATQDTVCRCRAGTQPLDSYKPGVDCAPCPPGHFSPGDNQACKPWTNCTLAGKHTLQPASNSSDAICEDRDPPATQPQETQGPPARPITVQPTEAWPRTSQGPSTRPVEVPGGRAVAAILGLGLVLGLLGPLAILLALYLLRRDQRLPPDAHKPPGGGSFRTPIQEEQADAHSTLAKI
The assay is described as follows: flow cytometry, activated human CD4+ T cells, donor 1. A general note: In flow cytometry, cells or beads pass a laser one at a time.

Assay [7] has as its target T5, human OX40 expressed on cells. Put plainly: flow cytometry, activated human CD4+ T cells, without sOX40L, n=3.
The target in assay [8] is T6, human OX40 with mouse CRD1 (human with mouse CRD1, UniProt P43489 29-277).
T6 construct: on ExpiCHO-S cells; also called OX40-CRD1mm; Shuffle 1
T6 chain: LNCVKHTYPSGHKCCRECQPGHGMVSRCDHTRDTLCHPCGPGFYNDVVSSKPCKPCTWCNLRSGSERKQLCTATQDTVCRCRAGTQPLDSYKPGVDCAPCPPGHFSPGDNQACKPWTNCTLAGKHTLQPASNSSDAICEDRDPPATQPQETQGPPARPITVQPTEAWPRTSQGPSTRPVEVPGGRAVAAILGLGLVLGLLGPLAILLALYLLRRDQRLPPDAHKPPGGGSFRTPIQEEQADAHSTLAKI
Put plainly: flow cytometry, transfected ExpiCHO-S cells, MFI at 5 µg/mL as % of IgG1-CD134-A4453. On the procedure:
(§3) The four shuffle constructs, as well as wild-type human and mouse OX40 were transiently expressed on ExpiCHO-S cells using the ExpiFectamine™ CHO Transfection Kit (ThermoFisher, cat. no. A29131), according to the manufacturer's protocol. […] Next, cells were washed twice in FACS buffer 1, were resuspended in a 30 μL solution of viability marker ToPro-3 (Invitrogen, cat. no. T3605, diluted 1:10,000) in FACS buffer 1 supplemented with 2 mM EDTA, and were analyzed on an iQue Screener Plus (Intellicyt Corporation, USA). Data were analyzed using FlowJo software and visualized using GraphPad Prism.

In assay [9] the target is T7, human OX40 with mouse CRD3 (human with mouse CRD3, UniProt P43489 29-277).
T7 construct: on ExpiCHO-S cells; also called OX40-CRD3mm; Shuffle 3
T7 chain: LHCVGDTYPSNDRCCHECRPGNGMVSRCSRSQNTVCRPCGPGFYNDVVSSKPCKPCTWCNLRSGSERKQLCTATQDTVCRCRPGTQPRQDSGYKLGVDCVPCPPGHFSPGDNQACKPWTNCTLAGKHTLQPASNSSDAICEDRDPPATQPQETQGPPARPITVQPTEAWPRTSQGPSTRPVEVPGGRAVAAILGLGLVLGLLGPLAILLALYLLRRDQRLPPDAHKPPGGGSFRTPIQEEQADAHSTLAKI
The description is as above. On the procedure: as §3

“And” between values parts separate entries of the source, which are not always exact repeats. Identical values can stand only once.

Chain of His-tagged human recombinant FcγRIa (Sino Biological, cat. no. 10256-H08S-B) (P12314 16-288 limits assumed, stated change not applied): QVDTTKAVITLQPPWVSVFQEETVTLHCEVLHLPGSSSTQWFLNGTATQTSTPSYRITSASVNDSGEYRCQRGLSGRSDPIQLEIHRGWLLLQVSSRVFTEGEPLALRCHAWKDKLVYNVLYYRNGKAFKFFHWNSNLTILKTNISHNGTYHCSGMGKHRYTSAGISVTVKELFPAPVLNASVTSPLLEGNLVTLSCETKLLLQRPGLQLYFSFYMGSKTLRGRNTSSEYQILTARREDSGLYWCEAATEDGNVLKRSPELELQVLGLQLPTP
T4 sequence (P08637 17-208 F176V limits assumed): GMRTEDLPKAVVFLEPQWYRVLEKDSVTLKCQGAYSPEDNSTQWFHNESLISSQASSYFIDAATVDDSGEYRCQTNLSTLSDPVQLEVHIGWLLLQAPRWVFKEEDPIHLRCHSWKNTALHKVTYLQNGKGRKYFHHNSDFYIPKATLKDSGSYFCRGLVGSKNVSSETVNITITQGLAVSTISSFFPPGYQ
T1 sequence (P08637 17-208 limits assumed): as the sequence (P08637 17-208 F176V limits assumed) above, with V160F counted along it

B1: IgG1-CD134-003-HC6LC2-P329R-E345R (antibody)
heavy: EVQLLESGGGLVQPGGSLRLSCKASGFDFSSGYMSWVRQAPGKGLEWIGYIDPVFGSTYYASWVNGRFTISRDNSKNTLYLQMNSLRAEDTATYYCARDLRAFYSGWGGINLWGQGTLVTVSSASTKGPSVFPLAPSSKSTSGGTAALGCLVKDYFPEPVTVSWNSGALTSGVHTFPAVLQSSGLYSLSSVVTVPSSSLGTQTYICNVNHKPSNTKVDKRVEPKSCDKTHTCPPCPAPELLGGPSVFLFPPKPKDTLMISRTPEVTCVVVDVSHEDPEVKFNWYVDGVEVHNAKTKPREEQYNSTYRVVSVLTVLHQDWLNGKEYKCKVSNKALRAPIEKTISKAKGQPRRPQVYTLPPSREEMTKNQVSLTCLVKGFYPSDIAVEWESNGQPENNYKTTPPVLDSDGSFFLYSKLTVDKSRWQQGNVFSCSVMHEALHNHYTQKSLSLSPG
light: AAVLTQSPSSLSASVGDRVTITCQSSQIVVNNNFLSWYQQKPGKAPKLLIYDASNLASGVPDRFSGSGSGTDFTFTISSLQPEDIATYYCLGGYDDDAENAFGGGTKVEIKRTVAAPSVFIFPPSDEQLKSGTASVVCLLNNFYPREAKVQWKVDNALQSGNSQESVTEQDSKDSTYSLSSTLTLSKADYEKHKVYACEVTHQGLSSPVTKSFNRGEC
notes: humanized; human IgG1 with P329R and E345R (Eu numbering), kappa; also called IgG1-CD134-003-HC6LC2-RR
One may read the EC50 as the midpoint of the concentration-response curve. The low end stands for a more potent agent, the high end for a less potent agent. For the molecule B1, the binding result in [1] is reported as “no binding (tested: about 4,000 nM)”; in [2], “binds”; in assay [3], “no binding (tested: about 5,000 nM)”; in assay [4], “no binding (tested: 10,000 nM)”; in [5], “no binding (tested: 10,000 nM)”; in [8] it was “no binding (tested: 5 µg/mL)”. Also, the binding result in assay [9] was “binds”. In addition, the EC50 in [6] is 0.0273 mg/L; in assay [7], 0.019 µg/mL and 0.13 nM.
